Laboratory results reported in patent US20240182536A1 (MURAL ONCOLOGY, published 2024).
Residue numbers refer to the chain shown, from its start. In names and notes the source's numbering stands.

B1: IL-18 variant K53Y, S55Y, Q56H (ligand)
chain: YFGKLESKLSVIRNLNDQVLFIDQGNRPLFEDMTDSDMRDNAPRTIFIISMYYDYHPRGMAVTISVKSEKISTLSSENKIISFKEMNPPDNIKDTKSDIIFFQRSVPGHDNKMQFESSSYEGYFLASEKERDLFKLILKKEDELGDRSIMFTVQNED
B2: IL-18 variant L9V, K53H, S55M (ligand)
chain: B1 chain with L9V, Y53H, Y55M, H56Q
B3: IL-18 variant K53S, S55Y, P107M (ligand)
chain: B1 chain with Y53S, H56Q, P107M
B4: IL-18 variant K53H, S55H (ligand)
chain: B1 chain with Y53H, Y55H, H56Q
B5: IL-18 variant K53N, S55Y (ligand)
chain: B1 chain with Y53N, H56Q
B6: IL-18 variant K53H, S55I (ligand)
chain: B1 chain with Y53H, Y55I, H56Q
B7: IL-18 variant K53Y, S55V (ligand)
chain: B1 chain with Y55V, H56Q
B8: IL-18 variant K53H, S55M, Q56H (ligand)
chain: B1 chain with Y53H, Y55M

Legend:
[1] = target: T1, interleukin 18 binding protein (IL-18BP) (UniProt O95998 31-194); assay: cell-based or functional assay
T1 sequence (looked up): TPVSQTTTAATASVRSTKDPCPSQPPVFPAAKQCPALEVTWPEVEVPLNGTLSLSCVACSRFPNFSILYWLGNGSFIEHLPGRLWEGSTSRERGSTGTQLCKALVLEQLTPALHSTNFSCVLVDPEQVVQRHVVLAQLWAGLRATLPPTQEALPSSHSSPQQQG

[2] = target: T2, IL-18 receptors on HEK-Blue IL-18 reporter cells (UniProt Q13478 19-541; O95256 20-599, limits assumed); assay: cell-based or functional assay
T2 sequence (looked up) 1: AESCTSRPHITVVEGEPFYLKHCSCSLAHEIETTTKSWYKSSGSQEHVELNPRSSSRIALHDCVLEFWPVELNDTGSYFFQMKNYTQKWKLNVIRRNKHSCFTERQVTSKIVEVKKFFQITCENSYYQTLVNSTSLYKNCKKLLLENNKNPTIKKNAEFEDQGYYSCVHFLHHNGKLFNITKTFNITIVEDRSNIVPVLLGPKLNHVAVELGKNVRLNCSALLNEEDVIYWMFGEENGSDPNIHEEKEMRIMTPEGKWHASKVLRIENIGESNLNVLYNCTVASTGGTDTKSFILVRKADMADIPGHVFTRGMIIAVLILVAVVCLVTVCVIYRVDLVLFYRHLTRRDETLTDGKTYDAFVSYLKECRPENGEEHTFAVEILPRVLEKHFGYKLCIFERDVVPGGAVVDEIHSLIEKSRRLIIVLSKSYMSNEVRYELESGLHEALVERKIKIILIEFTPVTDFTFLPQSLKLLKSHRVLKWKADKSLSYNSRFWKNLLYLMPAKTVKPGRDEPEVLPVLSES
T2 sequence (looked up) 2: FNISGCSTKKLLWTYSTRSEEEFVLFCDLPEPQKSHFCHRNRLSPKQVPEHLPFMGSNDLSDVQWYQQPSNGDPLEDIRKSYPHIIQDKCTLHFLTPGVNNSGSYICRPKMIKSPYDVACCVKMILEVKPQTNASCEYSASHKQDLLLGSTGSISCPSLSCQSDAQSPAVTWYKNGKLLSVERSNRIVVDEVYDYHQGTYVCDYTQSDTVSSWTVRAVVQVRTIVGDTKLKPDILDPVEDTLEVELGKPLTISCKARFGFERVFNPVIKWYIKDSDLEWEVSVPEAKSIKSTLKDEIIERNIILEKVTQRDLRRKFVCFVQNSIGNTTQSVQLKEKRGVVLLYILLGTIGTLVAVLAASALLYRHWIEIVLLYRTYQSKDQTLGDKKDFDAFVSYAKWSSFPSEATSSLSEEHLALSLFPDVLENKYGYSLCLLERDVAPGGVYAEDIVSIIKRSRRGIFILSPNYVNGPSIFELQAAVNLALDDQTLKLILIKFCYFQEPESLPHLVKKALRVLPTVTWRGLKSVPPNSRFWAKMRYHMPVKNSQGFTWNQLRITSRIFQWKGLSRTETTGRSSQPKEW

Row | Binder | HEK-Blue activity, +100 nM BP, DF-10000 [1] | HEK-Blue activity, +100 nM BP, DF-100,000 [1] | HEK-Blue activity, +100 nM BP, DF-1,000,000 [1] | Ratio (-BP/+BP), DF-10000 [1] | Ratio (-BP/+BP), DF-100,000 [1] | Ratio (-BP/+BP), DF-1,000,000 [1] | HEK-Blue activity, No BP, DF-10000 [2] | HEK-Blue activity, No BP, DF-100,000 [2] | HEK-Blue activity, No BP, DF-1,000,000 [2]
1 | B1 | 0.22 | 0.2 | 0.19 | 0.73 | 0.76 | 0.73 | 0.16 | 0.15 | 0.14
2 | B2 | 0.16 | 0.1 | 0.14 | 0.94 | 1.01 | 0.78 | 0.15 | 0.1 | 0.11
3 | B3 | 0.19 | 0.14 | 0.18 | 0.82 | 0.76 | 0.69 | 0.15 | 0.11 | 0.12
4 | B4 | 0.15 | 0.1 | 0.09 | 1.01 | 0.99 | 0.96 | 0.15 | 0.1 | 0.08
5 | B5 | 0.14 | 0.09 | 0.09 | 1.11 | 1.02 | 0.96 | 0.16 | 0.09 | 0.08
6 | B6 | 0.16 | 0.11 | 0.1 | 0.92 | 0.9 | 0.89 | 0.14 | 0.1 | 0.09
7 | B7 | 0.16 | 0.14 | 0.13 | 1.03 | 1.44 | 1.27 | 0.16 | 0.2 | 0.16
8 | B8 | 0.15 | 0.1 | 0.09 | 0.97 | 0.96 | 0.92 | 0.14 | 0.09 | 0.08
